Data published in patent US20250011397A1 (HOSPITAL FOR SICK CHILDREN, published 2025).
“And” between values parts separate entries of the source, which are not always exact repeats. Identical values can stand only once. Like-named read-outs stand apart in the source and are kept apart here.

Tests used:
Test in all cases: cell-based or functional assay
[1] = target: T1, SARS-CoV-2 Spike on HIV-based pseudotyped virus (Spike plasmid BEI NR52310) (SARS-CoV-2, UniProt P0DTC2 14-1273)
[2] = target: T1, SARS-CoV-2 Spike on HIV-based …; remark: listed apart in the source
[3] = target: T1, SARS-CoV-2 Spike on HIV-based …; remark: listed apart in the source
[4] = target: Spike of authentic SARS-CoV-2/SB2-P4-PB virus (SARS-CoV-2, UniProt P0DTC2 14-1273)

Row | Binder | Median IC50 (PsV neutralization) [1] | IC50 SARS-CoV2 PsV (µg/mL), IgG [2] | Median IC50 (PsV neutralization) [3] | IC50 SARS-CoV2 PsV (µg/mL), MB [2] | IC50 SARS-CoV2/SB2-P4-PB (µg/mL), MB [4] | IC50 SARS-CoV2/SB2-P4-PB (µg/mL), IgG [4]
1 | 4A8 IgG (antibody, V domains shown, also called IgG 4A8) VH: EVQLVESGAEVKKPGASVKVSCKVSGYTLTELSMHWVRQAPGKGLEWMGGFDPEDGETMYAQKFQGRVTMTEDTSTDTAYMELSSLRSEDTAVYYCATSTAVAGTPDLFDYYYGMDVWGQGTTVTVSS VL: EIVMTQSPLSSPVTLGQPASISCRSSQSLVHSDGNTYLSWLQQRPGQPPRLLIYKISNRFSGVPDRFSGSGAGTDFTLKISRVEAEDVGVYYCTQATQFPYTFGQGTKVDIK | > 100 µg/mL and > 0.66 µM | – | – | – | – | –
2 | mAb 192 (antibody, V domains shown) VH: QVQLVQSGAEVKKPGSSVKVSCKASGGTFSSYAISWVRQAPGQGLEWMGWINPNSGGANYAQKFQGRVTITADESTSTAYMELSSLRSEDTAVYYCSTYYYDSSGYSTDYWGQGTLVTVSS VL: DIVMTQSPLSLPVTPGEPASISCRSSQSLLHSNGYNYLDWYLQKPGQSPQLLIYAASSLQSGVPDRFSGSGSGTDFTLKISRVEAEDVGVYYCMQALQTPYTFGQGTKLEIKR | – | > 50 µg/mL | > 50 µg/mL and > 333 nM | – | – | –
3 | mAb 180 (antibody, V domains shown) VH: QVQLVQSGAEVKKPGSSVKVSCKASGYTFTSYAMHWVRQAPGQGLEWMGRISPRSGGTKYAQRFQGRVTITADESTSTAYMELSSLRSEDTAVYYCAREAVAGTHPQAGDFDLWGRGTLVTVSS VL: DIVMTQSPLSLPVTPGEPASISCRSSQSLLHSNGYNYLDWYLQKPGQSPQLLIYAASSLQSGVPDRFSGSGSGTDFTLKISRVEAEDVGVYYCQQYYSSPYTFGQGTKLEIKR | – | > 50 µg/mL | > 50 µg/mL and > 333 nM | – | – | –
4 | MB 82 (other) heavy: QVQLVQSGAEVKKPGASVKVSCKASGGSFSTSAFYWVRQAPGQGLEWMGWINPYTGGTNYAQKFQGRVTMTRDTSTSTVYMELSSLRSEDTAVYYCARSRALYGSGSYFDYWGQGTLVTVSSASTKGPSVFPLAPSSKSTSGGTAALGCLVKDYFPEPVTVSWNSGALTSGVHTFPAVLQSSGLYSLSSVVTVPSSSLGTQTYICNVNHKPSNTKVDKKVEPKSC light: not shown | – | – | 0.0022 µg/mL and 0.95 pM | 0.0022 µg/mL | 0.21 µg/mL | –
5 | mAb 64 (antibody, V domains shown, also called IgG 64) VH: EVQLLESGGGLVQPGGSLRLSCAASGFPFSQHGMHWVRQAPGKGLEWVSAIDRSGSYIYYADSVKGRFTISRDNSKNTLYLQMNSLRAEDTAVYYCARDTYGGKVTYFDYWGQGTLVTVSS VL: DIQMTQSPSSLSASVGDRVTITCRASQGISSHLAWYQQKPGKAPKLLIYDASNLETGVPSRFSGSGSGTDFTLTISSLQPEDFATYYCQQTYSTPWTFGQGTKVEIKR | – | > 50 µg/mL | > 50 µg/mL and > 333 nM | – | – | –
6 | mAb 82 (antibody, V domains shown, also called IgG 82) VH: QVQLVQSGAEVKKPGASVKVSCKASGGSFSTSAFYWVRQAPGQGLEWMGWINPYTGGTNYAQKFQGRVTMTRDTSTSTVYMELSSLRSEDTAVYYCARSRALYGSGSYFDYWGQGTLVTVSS VL: DIQMTQSPSSLSASVGDRVTITCRASQVISNYLAWYQQKPGKAPKLLIYDASNLETGVPSRFSGSGSGTDFTLTISSLQPEDFATYYCQQSFSPPPTFGQGTRLEIKR | – | 1.6 µg/mL | 1.6 µg/mL and 11 nM | – | – | –
7 | mAb 254 (antibody, V domains shown, also called IgG 254) VH: EVQLLESGGGLVQPGGSLRLSCAASGFTFSSSAMHWVRQAPGKGLEWVSAIGTGGDTYYADSVKGRFTISRDNSKNTLYLQMNSLRAEDTAVYYCAREGDGYNFYFDYWGQGTLVTVSS VL: DIQMTQSPSSLSASVGDRVTITCRASQGISSYLAWYQQKPGKAPKLLIYDASSLQIGVPSRFSGSGSGTDFTLTISSLQPEDFATYYCLQSYSTPPWTFGQGTKVEIKR | – | > 50 µg/mL | > 50 µg/mL and > 333 nM | – | – | –
8 | mAb 120 (antibody, V domains shown, also called IgG 120) VH: QVQLVQSGAEVKKPGASVKVSCKASGYTFTSYDINWVRQAPGQGLEWMGMIDPSGGSTSYAQKFQGRVTMTRDTSTSTVYMELSSLRSEDTAVYYCAKDFGGGTRYDYWYFDLWGRGTLVTVSS VL: EIVMTQSPATLSVSPGERATLSCRASQSVSSRYLAWYQQKPGQAPRLLIYGASTRATGIPARFSGSGSGTEFTLTISSLQSEDFAVYYCQQYYTTPRTFGQGTRLEIKR | – | > 50 µg/mL | > 50 µg/mL and > 333 nM | – | – | –
9 | MB 46 (other) heavy: EVQLLESGGGLVQPGRSLRLSCAASGFTFSSYAMSWVRQAPGKGLEWVSTIYSGGSTYYADSVKGRFTISRDNSKNTLYLQMNSLRAEDTAVYYCARGDSRDAFDIWGQGTMVTVSSASTKGPSVFPLAPSSKSTSGGTAALGCLVKDYFPEPVTVSWNSGALTSGVHTFPAVLQSSGLYSLSSVVTVPSSSLGTQTYICNVNHKPSNTKVDKKVEPKSC light: not shown | – | – | 0.0024 µg/mL and 1 pM | 0.0024 µg/mL | 0.027 µg/mL | –
10 | mAb 158 (antibody, V domains shown, also called IgG 158) VH: QVQLVQSGAEVKKPGASVKVSCKASGYTFTGYYMHWVRQAPGQGLEWMGWINPLNGGTNFAPKFQGRVTMTRDTSTSTVYMELSSLRSEDTAVYYCARDPGGSYSNDAFDIWGQGTLVTVSS VL: DIQMTQSPSSLSASVGDRVTITCRASQSISRYLNWYQQKPGKAPKLLIYDASNLESGVPSRFSGSGSGTDFTLTISSLQPEDFATYYCQQANSFPLTFGGGTKVDIKR | – | > 50 µg/mL | > 50 µg/mL and > 333 nM | – | – | –
11 | mAb 324 (antibody, V domains shown, also called IgG 324) VH: QVQLVQSGAEVKKPGASVKVSCKASGGTFNNYGISWVRQAPGQGLEWMGWMNPNSGNTGYAQKFQGRVTMTRDTSTSTVYMELSSLRSEDTAVYYCARVGDYGDYIVSPFDLWGRGTLVTVSS VL: DIQMTQSPSSLSASVGDRVTITCRASQSITTYLNWYQQKPGKAPKLLIYDASNLETGVPSRFSGSGSGTDFTLTISSLQPEDFATYYCQQSYSTPPTFGQGTKVEIKR | – | 0.78 µg/mL | 0.78 µg/mL and 5.2 nM | – | – | 21 µg/mL
12 | mAb 46 (antibody, V domains shown, also called IgG 46; antibody 46) VH: EVQLLESGGGLVQPGRSLRLSCAASGFTFSSYAMSWVRQAPGKGLEWVSTIYSGGSTYYADSVKGRFTISRDNSKNTLYLQMNSLRAEDTAVYYCARGDSRDAFDIWGQGTMVTVSS VL: DIQMTQSPSSLSASVGDRVTITCRASQSISSWLAWYQQKPGKAPKLLIYDASNLETGVPSRFSGSGSGTDFTLTISSLQPEDFATYYCQQSYSTPFTFGPGTKVDIKR | – | 2.1 µg/mL | 2.1 µg/mL and 14 nM | – | – | 19 µg/mL
13 | mAb 52 (antibody, V domains shown, also called IgG 52; antibody 52) VH: QVQLVQSGAEVKKPGSSVKVSCKASGYTFTSYGISWVRQAPGQGLEWMGGIIPMFGTTNYAQKFQGRVTITADKSTSTAYMELSSLRSEDTAVYYCARDRGDTIDYWGQGTLVTVSS VL: DIQMTQSPSSLSASVGDRVTITCRASQGISNNLNWYQQKPGKAPKLLIYAASSLESGVPSRFSGSGSGTDFTLTISSLQPEDFATYYCQQGNGFPLTFGPGTKVDIKR | – | 0.55 µg/mL | 0.61 µg/mL and 4.1 nM | – | – | 6.2 µg/mL
14 | mAb 236 (antibody, V domains shown, also called IgG 236) VH: QVQLVQSGAEVKKPGASVKVSCKASGGTFTSYGINWVRQAPGQGLEWMGWMNPNSGNTGYAQKFQGRVTMTRDTSTSTVYMELSSLRSEDTAVYYCASRGIQLLPRGMDVWGQGTTVTVSS VL: not shown | – | 0.057 µg/mL | 0.057 µg/mL and 0.38 nM | – | – | 5.5 µg/mL
15 | MB 324 (other) heavy: QVQLVQSGAEVKKPGASVKVSCKASGGTFNNYGISWVRQAPGQGLEWMGWMNPNSGNTGYAQKFQGRVTMTRDTSTSTVYMELSSLRSEDTAVYYCARVGDYGDYIVSPFDLWGRGTLVTVSSASTKGPSVFPLAPSSKSTSGGTAALGCLVKDYFPEPVTVSWNSGALTSGVHTFPAVLQSSGLYSLSSVVTVPSSSLGTQTYICNVNHKPSNTKVDKKVEPKSC light: not shown | – | – | 0.0009 µg/mL and 0.39 pM | 0.0009 µg/mL | 0.024 µg/mL | –
